# Data taken from the supplement of paper PMC9170038.
# System: MS2 coat protein
# Test: apparent KD of MS2 coat protein; higher = weaker reporter binding
# Conditions: Eterna round: R107
# Procedure, shortened: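 Designed RNA switches were transcribed on-chip from Illumina sequencing clusters. They were then titrated with SNAP-549-labelled MS2 coat protein (twofold steps, 0.7 or 1.5 nM to 3 µM; 0.8–1.5 h to 10–20 min per step) in 100 mM Tris-HCl pH 7.5, 80 mM KCl, 4 mM MgCl2, without or with constant ligand. Apparent KD is the per-design median of normalised cluster binding-curve fits.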
# [1] = input ligand: theophylline 20 uM
# [2] = input ligand: theophylline 2 mM
# [3] = input ligand: tryptophan 2.4 mM
Sequence,apparent KD of MS2 coat protein (input ligand: arginine 13.2 mM) [nM],apparent KD of MS2 coat protein (input ligand: none) [nM],apparent KD of MS2 coat protein [1] [nM],apparent KD of MS2 coat protein [2] [nM],apparent KD of MS2 coat protein [3] [nM]
CGUUGGUGUGGAGACAUAUUGAUGACUGAAGGAGCGGGAAUAAACCCAGGUAGGUCGCAGAGAUCCACAUGAGGAUCACCCAUGU [!0.R],26.3,73.1,74.9,154,49.5
CUAAUUAAAUCGGCCGCCACUUACUCAUGAGGUAACAACAUGAGGAUCACCCAUGUUUGAGGAUCAAGGACCGGGAUUUAAUUAG [AstrosSSTry#23],24.9,–,33.7,30.1,–
CUACAUUUGUAGAAACCGGUCAACAUUAUUCGAGGACCGGUACGGCCGCCACUCGUAUAAUUUAAUACAUGAGGAUCACCCAUGU [Tryptophan A 5],16.1,–,17.3,16.9,–
CUAUAAGUAACUGAUACCAGUGUACUGACAUGAGGAUCACCCAUGUUGGGUUUUGUUGUACACCCUUGGCAGCAGAAUCUUGUAG [AstrosExyTheB#15],46.5,–,62.3,–,54
CUAUAGAUAAGAAGGAGCGUCGAAAAUGGGUAAACAUGAGGAUCACCCAUGUAAAGGGAACGACAGGUAGGUCGCUUAUUUAUAG [AstromonsSSArgB#6],124,217,206,226,145
CUCAUCCACGCGGCCGCCACUAUAUUGUGGUGCGAAUGUGUCGUAAUACAUGAGGAUCACCCAUGUAGGACCGGGCGUGGAUGAG [#09 Exclusion Tryptophan B],10.3,–,14.4,13.5,–
CUCAUCCACGCGGCCGCCACUAUAUUGUGGUGUGAAUGUGACGUAUUACAUGAGGAUCACCCAUGUAGGACCGGGCGUGGAUGAG [#07 Exclusion Tryptophan B],55.8,–,86.2,93.5,–
CUCAUCCACGCGGCCGCCACUAUAUUGUGGUGUGAAUGUGUCGUAAUACAUGAGGAUCACCCAUGUAGGACCGGGCGUGGAUGAG [#08 Exclusion Tryptophan B],19.3,–,30.9,37.4,–
CUCCCGUGGUCGGCCGCCACUGGAGGCCUUGCGCGACAUGAGGAUCACCCAUGUGGGCCCGGCGUCAGGACCGGGAUCGCGUGAG [#1 Same State - Tryptophan B Attempt #11 (HarryS)],11.5,16.1,20.2,16.2,15.6
CUCCUGGGAGCGGCCGCCACUGGAGGCCUCGCGCGACAUGAGGAUCACCCAUGUUGGCCCGGCCUCAGGACCGGGUUCGCGCGAG [Same State - Tryptophan B Attempt #3],8.01,12.9,17.9,10.6,10
CUCCUGGGAGCGGCCGCCACUGGAGGCCUUGCGCGACAUGAGGAUCACCCAUGUUGGCCCGGCCUCAGGACCGGGUUCGCGCGAG [Same State - Tryptophan B Attempt #2],12.3,11.3,12.3,9.73,10.1
CUCCUGUGAGCGGCCGCCACUGGAGGCCUCGCGCGACAUGAGGAUCACCCAUGUUGGCCCGGCCUCAGGACCGGGUUCGCGCGAG [Same State - Tryptophan B Attempt #4 (HarryS)],7.89,11.1,15.4,10.7,10.9
CUCGAGUUAUGAGAUACCAGACUAUAGUUUACAUGAGGAUCACCCAUGUUAUGGGUGGUGGUCCCUUGGCAGCUCAUAUGUUUAA [#08 Exclusion-TheophyllineB],105,–,220,–,85.1
CUCUCAUGAACAUGAGGAUCACCCAUGUAACGAGGACCGGUACGGCCGCCACUCGAACGUGGAUACCAAUCGAGUGGGUGAGAGA [Tryp A Ex t5],31,21.5,25.2,23.8,80.1
CUGCCAUGCAGAGAUACCAGUGCGCUCAGCACAUGAGGAUCACCCAUGUCGGCUGCCGAUCACCCUUGGCAGCUCUGCAUGGCAG [?@#$_],12,–,13,–,11.3
CUGGACAUGAGGAUCACCCAUGUAAAUCCUCGAGGACCGGUACGGCCGCCACUCGAACGAGUGGCACGCGAGUGCGCACUCGCGU [aLa],26.9,29.8,45.6,36.2,33
CUGGACAUGAGGAUCACCCAUGUAAAUCCUCGAGGACCGGUACGGCCGCCACUCGAACGAGUGGCGCGCGAGCGCGCGCUCGCGC [aJa],41.4,43.3,80.3,62.5,45.5
CUGUGUCCUUCGGCCGCCACUACAUGAGGAUCACCCAUGUCGUUACGGCUCCCAAUGACGCUUUGUAGGACCGGGAAGGAGUAUG [Tienancebe],9.27,–,15.9,10.9,–
CUUCAACAUGAGGAUCACCCAUGUAGUGAUACCAGUCACUCAUACGACCCUUGGCAGCACAUUUUCUGUCGGCAUGUAGACGAUC [theeternabot_sameState_MS2_Theo_A_33],73.6,–,172,–,173
CUUGGUAGAUCCUAGCUGCCAAGAGGUGAUACCAGCAUCGAAAGAUGCCCUUGGCAGCACCAACAUGAGGAUCACCCAUGUAAUA [(MT)''-(M)'-(T')-(Theo)-(Ms2)_Design1/22_4],24.3,–,178,–,77.4
